Results on 14 molecules are retold here after patent US10913773B2, “Bicyclic peptidyl inhibitor of tumor necrosis factor-alpha” (Ohio State Innovation Foundation, priority 2016, dated 2021).

In data set [1] the test system is TNFα-induced cell death in WEHI-13VAR fibroblasts (recombinant human TNFα). The format is cell-based. The procedure: WEHI-13VAR fibroblasts were purchased from American Type Culture Collection (ATCC). For maintenance, cells were grown in full medium as RPMI-1640 supplemented with 10% FBS and 1% Abs. For toxicity assay, cells were seeded in a 96-well plate at a density of 5×10^3 cells/well in 100 μL of RPMI-1640/1% Abs supplemented with 10% or 5% FBS and allowed to grow overnight. Varying concentrations of recombinant human TNFα (0-250 ng/mL) or commercial mouse TNFα were (0-100 pg/mL) were incubated with 10 μM peptide and actinomycin D (1 μg/mL) in 100 μL of corresponding growth medium for 1 h at 37° C. Next, the medium in the 96-well plate was removed and replaced with the above fresh mixture and the cells were incubated overnight. Next day, 10 μL of the 3-(4, 5-dimethylthiazolyl-2)-2, 5-diphenyltetrazolium bromide (MTT, final concentration 0.5 mg/ml) was added to each well and incubated at 37° C. for 3 h, following by the addition of 100 μL of the MTT solubilization solution. The plate was kept in the incubator overnight to let the formazan crystals to completely dissolve, and the absorbance at 570 nm was measured on a TECAN plate reader. The LD50 was obtained as plotting the viability as a function of the TNFα concentration.
One of the biological functions of TNFα is to induce death signaling. Inhibitors against the TNFα-TNFR interaction are expected to protect cells against TNFα induced cell death. Therefore, anticachexin C1, C1-74, and C1-74-2 through C1-74-5 were compared for their ability to protect cultured WEHI-13 VAR fibroblasts, which are highly sensitive to TNFα in the presence of actinomycin-D, against TNFα-induced cell death (Khabar, K. S. A.; et al., “WEHI-13VAR: A Stable and Sensitive Variant of WEHI 164 Clone 13 Fibrosarcoma for Tumor Necrosis Factor Bioassay.” Immunol. Lett. 1995, 46:107-110). The cells were treated with a fixed concentration of peptides (10 μM) and varying concentrations of TNFα (0-1 μM), and the fraction of live cells was quantitated by the 3-(4,5-dimethylthiazol-2-yl)-2,5-diphenyltetrazolium bromide (MTT) assay. […] The MTT assay was also conducted at a fixed concentration of TNFα (0.4 ng/mL) but varying concentrations of peptides (0-10 μM).

The next data set concerns the target T1, TNFα-TNFR1 interaction (Homo sapiens, UniProt P01375).
T1 construct: made in house; host or cells: Escherichia coli (TNFα)
Briefly: ELISA inhibition of TNFα-TNFR1 interaction (immobilized biotinylated TNFα, TNFR1-HRP). The format is binding. The settings on record: inhibition of TNFα-TNFR1 interaction, unlabeled peptides. The procedure:
Inhibition of TNFα-TNRF1 interaction by ELISA was carried out as previously described (Lian, W.; et al., supra).
Because of its high-throughput capability, FA analysis had been used to generate all of the SAR data described above. […] To confirm the SAR data obtained by FA analysis, some of the compounds in Table 5 (as well as new compounds) were resynthesized without the Lys(FITC) label and employed a more sensitive ELISA-based assay to determine the IC50 values for inhibition of the TNFα-TNFR1 interaction. Briefly, biotinylated TNFα was immobilized onto a NeutrAvidin-coated surface. TNFR1 conjugated with horseradish peroxidase (HRP) (0.5 nM) was added along with different concentrations of a peptide inhibitor. After washing, the amount of bound TNFR1-HRP was quantitated by ELISA. […] In agreement with the FA results, either extension at the C-terminus of β-Ala with another amino acid (C1-67 to C1-70) or side-chain modification of β-Ala (C1-71 to C1-73) decreased TNFα binding.

A further data set can be described thus: Serum stability test. The format is in vitro ADME, human. The settings on record: 37° C. The procedure:
Diluted human serum (25%) was centrifuged at 15,000 rpm for 10 min, and the supernatant was collected. A peptide stock solution was diluted into the supernatant to a final concentration of 5 μM and incubated at 37° C. At various time points (0-8 h), 200-μL aliquots were withdrawn and mixed with 50 μL of 15% trichloroacetic acid and 200 μL of acetonitrile. After incubation at 4° C. overnight, the mixture was centrifuged at 15,000 rpm for 10 min in a microcentrifuge, and the supernatant was analyzed by reversed-phase HPLC equipped with an analytical C18 column (Waters). The amount of remaining intact peptide (%, relative that of time zero control) was determined by integrating the area underneath the peptide peak (monitored at 214 nm).

Data set [2] deals with Recombinant TNFα containing an N-terminal 13-aa ybbR tag (human) (UniProt P01375). Description: FA, FITC-peptide + TNFα titration.
Recombinant TNFα containing an N-terminal 13-aa ybbR tag (human), sequence (P01375 77-233): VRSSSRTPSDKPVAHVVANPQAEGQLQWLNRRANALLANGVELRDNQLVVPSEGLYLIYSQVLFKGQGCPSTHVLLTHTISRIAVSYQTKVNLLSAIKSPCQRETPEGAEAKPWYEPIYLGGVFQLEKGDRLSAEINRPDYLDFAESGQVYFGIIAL
Data set [3] has as its target T2, Recombinant TNFα containing an N-terminal 13-aa ybbR tag (human, UniProt P01375 77-233, biotin at the ybbR tag in the ELISA assays).
T2 construct: Expressed in E. coli; Same construct used unlabelled (FA) and biotinylated on NeutrAvidin (ELISA); also called tumor necrosis factor-alpha; human TNFα; not shown: N-terminal 13-aa ybbR tag
Description: FA, FITC-peptide + TNFα titration. The procedure: (§1) The FA values were measured on a Molecular Devices Spectramax M5 spectrofluorimeter, with excitation and emission wavelengths at 485 and 525 nm, respectively. Equilibrium dissociation constants (KD) were determined by plotting the FA values as a function of TNFα concentration and fitting the data to the following equation $$Y = \frac{\left(Amin + \left(Amax \times \frac{Q_b}{Q_f} - Amin\right)\left(\frac{(L+x+K_d) - \sqrt{((L+x+K_d)^2 - 4Lx)}}{2L}\right)\right)}{\left(1 + \left(\frac{Q_b}{Q_f} - 1\right)\left(\frac{(L+x+K_d) - \sqrt{((L+x+K_d)^2 - 4Lx)}}{2L}\right)\right)}$$
(§2) where Y is the measured anisotropy at a given TNFα concentration x; L is the bicyclic peptide concentration; Qb/Qf is the correction fact for dye-protein interaction; Amax is the maximum anisotropy when all the peptides are bound to TNFα, while $Amin$ is the minimum anisotropy. […] The FA values were plotted against the competitor peptide concentration to determine the IC$50$ values.

Data set [4] concerns the target T2, Recombinant TNFα containing an …. Briefly: FA. The procedure: as §1, §2
For data set [5] the target is unchanged. Briefly: FA, FITC-peptide + TNFα titration. The procedure: as §1, §2
The source holds these as a separate data set.

Data set [6] has the same target. Description: FA, FITC-peptide + TNFα titration. The source holds these as a separate data set.
The target is the same in data set [7]. Briefly: ELISA, inhibition of TNFR1-HRP binding to immobilized biotin-TNFα. An excerpt:
Because of its high-throughput capability, FA analysis had been used to generate all of the SAR data described above. […] Briefly, biotinylated TNFα was immobilized onto a NeutrAvidin-coated surface.
A general note: In an ELISA, binding on a coated surface is turned into a signal by an enzyme label.

For data set [8] the target is unchanged. Description: FA; against C1. The procedure: as §1, §2
The target is the same in data set [9]. Description: cell-based or functional assay.

Where two headings read alike, the source gives them in different places. Starred links: 1 amine or outer side, 2 acyl side, 3 side chain; linkers in the order of their positions; H or OH if unused. Positions of bridges follow the written chain, without caps; N, C: chain ends. Non-standard residues stand in square brackets, D forms with d. Residues, ends and D or L forms follow the SMILES beside them. Primed or numbered codes have the meaning given here. No end group written: not given here. *: point of attachment. FITC(3) = fluorescein isothiocyanate (N6-fluorescein-thiocarbamoyl on Lys); FITC = O=C1OC2(c3ccc(O)cc3Oc3cc(O)ccc32)c2ccc(NC(=S)*)cc21; Trimesoyl = O=C(c1cc(C(=O)[*:2])cc(C(=O)[*:3])c1)[*:1]; trimesoyl″ = benzene-1,3,5-tricarbonyl scaffold; Phe(4-F) = N[C@@H](Cc1ccc(F)cc1)C(=O)O; trimesoyl = benzene-1,3,5-tricarbonyl; Nle = CCCC[C@H](N)C(=O)O; Dap = NC[C@H](N)C(=O)O; AEEA = NCCOCCOCC(=O)O; βAla = NCCC(=O)O

Broadly, the EC50 is the concentration giving half of the maximal effect. As usually defined, the IC50 is the midpoint of a concentration-inhibition curve. A word on the half-life: it is the time in which the quantity being followed falls by half. For orientation: Kd means the concentration at which binding is half-saturated.

T2 sequence (P01375 77-233): as above

With `CCCC[C@@H]1NC(=O)c2cc3cc(c2)C(=O)NC[C@@H](C(=O)NCCC(N)=O)NC(=O)[C@H](Cc2c[nH]cn2)NC(=O)[C@@H](CCCCN)NC(=O)CNC(=O)[C@@H](Cc2c[nH]cn2)NC(=O)[C@H](Cc2c[nH]c4ccccc24)NC(=O)[C@H](CCCCNC3=O)NC(=O)[C@@H](C)NC(=O)[C@H](Cc2ccc(O)cc2)NC1=O` [Compound C1-74] ([Nle]Y[dA]KW[dH]G[dK]H[Dap][βAla]-NH2; linker N-4-10 via Trimesoyl), the half-maximal effective concentration (EC50) in data set [1] was roughly 1000 nM. The molecule further displayed an IC50 at TNFα-TNFR1 interaction of 70 nM.
For DRQIKIWFQNRRMKWKKTALDWSWLQTE [Antp-NBD], the “Time to complete degradation in human serum” value in the data set “Serum stability test” is listed as no more than 2 h. Further, the half-life at 5 μM in “Serum stability test” (human, diluted human serum (25%), supernatant after centrifugation) was roughly 15 min.
As to `CC(=O)[C@@H](Cc1ccccc1)NC(=O)[C@@H](C)NC(=O)C(N)Cc1ccc(F)c(F)c1` (stereo partly shown) [Compound C1-74-3], the LD50 in data set [1] turned out to be 2.6 ± 0.9 ng/mL. In addition, the IC50 on TNFα-TNFR1 interaction was found to be 150 ± 43 nM.

B1: C1-38 (peptide)
peptide: [Nle][Phe(4-F)][dS]K[Phe(4-F)][dH]G[dK]H[Dap]K(FITC)-NH2
modifications: linker (positions not given here) via trimesoyl; not fully specified (N-terminus, bridges)
For the molecule B1, the Kd in [2] was 2100 nM.

B2: C1-55 (peptide)
peptide: [Nle]Y[dS]KW[dH]G[dK]H[Dap]F[AEEA]K(FITC)-NH2
modifications: linker N-4-10 via trimesoyl″
notes: C1-35 core with R11 as printed
Regarding B2, in [3], the Kd came out at 1000 nM.

B3: C1-57 (peptide)
peptide: [Nle]Y[dS]KW[dH]G[dK]H[Dap]I[AEEA]K(FITC)-NH2
modifications: linker N-4-10 via trimesoyl″
notes: as for B2
B3: the Kd in data set [3] worked out at 510 nM.

B4: C1-35 (peptide)
peptide: [Nle]Y[dS]KW[dH]G[dK]H[Dap]K(FITC)-NH2
modifications: linker N-4-10 via trimesoyl″
On to B4, for which the “fold increase in affinity against Tyr at position-5” value in [4] worked out at 3 fold. For the same molecule, the equilibrium dissociation constant (Kd) in data set [5], in [3] and in [6] was 260 nM in each case.

B5: C1-54 (peptide)
peptide: [Nle]Y[dS]KW[dH]G[dK]H[Dap][AEEA]K(FITC)-NH2
modifications: linker N-4-10 via trimesoyl″
notes: as for B2
For B5, the Kd in data set [3] stood at 5100 nM.

B6: C1-68 (peptide)
peptide: [Nle]Y[dS]KW[dH]G[dK]H[Dap][βAla]A-NH2
modifications: linker N-4-10 via trimesoyl″
notes: No Lys(FITC) label
For B6, in [7], the IC50 worked out at 2600 nM.

B7: Anticachexin C1 Phg1 → Ala, NNNK(FITC)-tagged (peptide)
peptide: AY[dA]KY[dF]G[dK]H[Dap]NNNK(FITC(3))-NH2
modifications: linker N-4-10 via trimesoyl″
As to B7, in data set [6], the Kd amounted to 1000 nM. In addition, in data set [8], the “Fold of Affinity Reduction” value worked out at 1.2 fold.

B8: C1-56 (peptide)
peptide: [Nle]Y[dS]KW[dH]G[dK]H[Dap][dF][AEEA]K(FITC)-NH2
modifications: linker (positions not given here) via trimesoyl; not fully specified (N-terminus, bridges)
As to B8, in data set [2], the equilibrium dissociation constant (Kd) was found to be 630 nM.

B9: C1-51 (peptide)
peptide: [Nle]Y[dS]KW[dH]G[dK]H[Dap]DK(FITC)-NH2
modifications: linker (positions not given here) via trimesoyl″; not fully specified (bridges)
notes: as for B2
Consider B9, for which, in [3], the Kd turned out to be 3500 nM.

B10: C1-52 (peptide)
peptide: [Nle]Y[dS]KW[dH]G[dK]H[Dap]NK(FITC)-NH2
modifications: linker N-4-10 via trimesoyl″
notes: as for B2
As for B10, the “fold reduction in affinity against C1-35” value in data set [4] worked out at 3 fold. In data set [3], the Kd was 790 nM.

B11: C1-74 (peptide)
peptide: [Nle]Y[dA]KW[dH]G[dK]H[Dap][βAla]-NH2
modifications: linker N-4-10 via trimesoyl
notes: C1-66 with D-Ser3 reverted to D-Ala; also called bicyclic peptide C1-74
As to B11, in data set [9], the “EC50 of protection of WEHI-13VAR cells from 0.4 ng/mL TNFα, MTT” value was roughly 1000 nM.
